Assays:
Experiment in all cases: UV-induced peptide exchange, HLA class I ELISA; Pos peptide = 100%;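 also: Streptavidin-captured biotinylated HLA class I complexes detected by HRP-conjugated anti-human B2M antibody, absorbance readout of intact complex amount after exchange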
HLA-B*07:02 = target: T1, HLA-B*07:02 (human, biotinylated heavy chain)
T1 construct: Conditional HLA class I complex whose UV-labile peptide is exchanged for the test peptide
Experimental: (§1) The exchange efficiency between the peptide of interest and Pos was analyzed using an HLA class I ELISA.
(§2) The HLA class I ELISA is an enzyme immunoassay based on the detection of beta2-microglobulin (B2M) of (peptide-stabilized) HLA class I complexes. To this end streptavidin was bound onto polystyrene microtiter wells. After washing and blocking, HLA complex present in exchange reaction mixtures or ELISA controls was captured by the streptavidin on the microtiter plate via its biotinylated heavy chain. Non-bound material was removed by washing. Subsequently, horseradish peroxidase (HRP)-conjugated antibody to human B2M was added. […] In the latter case B2M was removed during the washing step. After removal of non-bound HRP conjugate by washing, a substrate solution was added to the wells. A coloured product formed in proportion to the amount of intact HLA complex present in the samples. After the reaction was terminated by the addition of a stop solution, absorbance was measured in a microtiter plate reader.

HLA-A*02:01 = target: T2, HLA-A*02:01 (human, biotinylated heavy chain)
T2 construct: Conditional HLA class I complex whose UV-labile peptide is exchanged for the test peptide
Experimental: as §1, §2

HLA-A*03:01 = target: T3, HLA-A*03:01 (human, biotinylated heavy chain)
T3 construct: Conditional HLA class I complex whose UV-labile peptide is exchanged for the test peptide
Experimental: as §1, §2

HLA-A*01:01 = target: T4, HLA-A*01:01 (human, biotinylated heavy chain)
T4 construct: Conditional HLA class I complex whose UV-labile peptide is exchanged for the test peptide
Experimental: as §1, §2

HLA-A*24:02 = target: T5, HLA-A*24:02 (human, biotinylated heavy chain)
T5 construct: Conditional HLA class I complex whose UV-labile peptide is exchanged for the test peptide
Experimental: as §1, §2

Binder | exchange rate with Pos peptide (HLA-B*07:02) | exchange rate with Pos peptide (HLA-A*02:01) | exchange rate with Pos peptide (HLA-A*03:01) | exchange rate with Pos peptide (HLA-A*01:01) | exchange rate with Pos peptide (HLA-A*24:02)
IQYSCMGLM (9-mer fragment of neoantigen P50; synthetic peptide) [P50 9-mer IQYSCMGLM] | 10.4% | 8.8% | 5.5% | 2.3% | 0.1%
FFKRAAEGF (9-mer fragment of neoantigen P77 (AR-V3); synthetic peptide) [P77 9-mer FFKRAAEGF] | 14.2% | – | 2.8% | 1.9% | 1.7%
NMVENGCYL (9-mer fragment of neoantigen P59; synthetic peptide) [P59 9-mer NMVENGCYL] | 7.5% | 11.9% | 4.5% | 2.2% | -0.5%
NSKMALNSL (9-mer fragment of neoantigen P35; synthetic peptide) [P35 9-mer NSKMALNSL] | 12.1% | 12.5% | 4.2% | 2.5% | 0.2%
STRRAVRRM (9-mer fragment of neoantigen P16 (MSMB-NCOA4 fusion); synthetic peptide) [P16 9-mer STRRAVRRM] | 13.7% | 10.4% | 6.1% | 5.5% | 0.8%
FPVGAEGTF (9-mer fragment of neoantigen P27; synthetic peptide) [P27 9-mer FPVGAEGTF] | 7.8% | 10% | 4.5% | 4.8% | 0.7%
GVLRRLLCR (9-mer fragment of neoantigen P37; synthetic peptide) [P37 9-mer GVLRRLLCR] | – | 12.5% | 6.4% | 1.4% | -0.1%
